Source: FireProtDB (doi:10.1074/jbc.m707838200)
Values joined by “and” are separate entries in the source; they are usually repeats but may differ in a detail not shown here. Identical values can stand only once.

B1: T171V, Q9EYL5 (parent)
chain: MTKKLLTLFIVSMLILTACGKKESATTSSKNGKPLVVVYGDYKCPYCKELDEKVMPKLRKNYIDNHKVEYQFVNLAFLGKDSIVGSRASHAVLMYAPKSFLDFQKQLFAAQQDENKEWLTKELLDKHIKQLHLDKETENKIIKDYKTKDSKSWKAAEKDKKIAKDNHIKTTPTAFINGEKVEDPYDYESYEKLLKDKIK

Variants of: B1
Details: Staphylococcus aureus, pH 7, Thermal, CD, reversible: Yes, structure 3BCI, whole UniProt chain shown; for unfolding free energy: 25 °C, Hepes-NaOH 20 mM, NaCl 170 mM; for Tm / change of melting temperature, mutant - wild type (higher = more stable): Phosphate 100 mM

Variant: T171V
- unfolding free energy: 8.19 kcal/mol and 8.42 kcal/mol
- Tm: 71.8 °C and 73 °C
- change of melting temperature, mutant - wild type (higher = more stable): -0.7 °C and 1.1 °C

Variant: E114Q
- unfolding free energy: 6.13 kcal/mol
- Tm: 74.2 °C
- change of melting temperature, mutant - wild type (higher = more stable): 2.3 °C
